Data from IntAct's records for PubMed 35512704.

B1: Speckle-type POZ protein (Homo sapiens), O43791 (parent)
chain: MSRVPSPPPPAEMSSGPVAESWCYTQIKVVKFSYMWTINNFSFCREEMGEVIKSSTFSSGANDKLKWCLRVNPKGLDEESKDYLSLYLLLVSCPKSEVRAKFKFSILNAKGEETKAMESQRAYRFVQGKDWGFKKFIRRDFLLDEANGLLPDDKLTLFCEVSVVQDSVNISGQNTMNMVKVPECRLADELGGLWENSRFTDCCLCVAGQEFQAHKAILAARSPVFSAMFEHEMEESKKNRVEINDVEPEVFKEMMCFIYTGKAPNLDKMADDLLAAADKYALERLKVMCEDALCSNLSVENAAEILILADLHSADQLKTQAVDFINYHASDVLETSGWKSMVVSHPHLVAEAYRSLASAQCPFLGPPRKRLKQS
partner: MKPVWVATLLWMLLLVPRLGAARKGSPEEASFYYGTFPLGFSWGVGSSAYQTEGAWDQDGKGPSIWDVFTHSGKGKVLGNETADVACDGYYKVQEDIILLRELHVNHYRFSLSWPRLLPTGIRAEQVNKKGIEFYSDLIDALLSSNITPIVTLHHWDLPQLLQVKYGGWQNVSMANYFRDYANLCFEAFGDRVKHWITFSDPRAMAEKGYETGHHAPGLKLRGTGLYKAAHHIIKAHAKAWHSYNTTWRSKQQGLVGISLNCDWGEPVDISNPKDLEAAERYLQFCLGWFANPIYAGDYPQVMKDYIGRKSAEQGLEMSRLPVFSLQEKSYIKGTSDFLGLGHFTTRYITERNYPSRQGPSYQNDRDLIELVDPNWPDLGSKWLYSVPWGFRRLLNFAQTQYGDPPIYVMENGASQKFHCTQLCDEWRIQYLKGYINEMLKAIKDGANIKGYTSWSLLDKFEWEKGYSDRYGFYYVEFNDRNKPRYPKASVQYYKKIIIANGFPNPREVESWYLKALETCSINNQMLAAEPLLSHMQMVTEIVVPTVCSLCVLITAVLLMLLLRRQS
B2: Speckle-type POZ protein (Homo sapiens), O43791 (parent)
chain: B1 chain
partner: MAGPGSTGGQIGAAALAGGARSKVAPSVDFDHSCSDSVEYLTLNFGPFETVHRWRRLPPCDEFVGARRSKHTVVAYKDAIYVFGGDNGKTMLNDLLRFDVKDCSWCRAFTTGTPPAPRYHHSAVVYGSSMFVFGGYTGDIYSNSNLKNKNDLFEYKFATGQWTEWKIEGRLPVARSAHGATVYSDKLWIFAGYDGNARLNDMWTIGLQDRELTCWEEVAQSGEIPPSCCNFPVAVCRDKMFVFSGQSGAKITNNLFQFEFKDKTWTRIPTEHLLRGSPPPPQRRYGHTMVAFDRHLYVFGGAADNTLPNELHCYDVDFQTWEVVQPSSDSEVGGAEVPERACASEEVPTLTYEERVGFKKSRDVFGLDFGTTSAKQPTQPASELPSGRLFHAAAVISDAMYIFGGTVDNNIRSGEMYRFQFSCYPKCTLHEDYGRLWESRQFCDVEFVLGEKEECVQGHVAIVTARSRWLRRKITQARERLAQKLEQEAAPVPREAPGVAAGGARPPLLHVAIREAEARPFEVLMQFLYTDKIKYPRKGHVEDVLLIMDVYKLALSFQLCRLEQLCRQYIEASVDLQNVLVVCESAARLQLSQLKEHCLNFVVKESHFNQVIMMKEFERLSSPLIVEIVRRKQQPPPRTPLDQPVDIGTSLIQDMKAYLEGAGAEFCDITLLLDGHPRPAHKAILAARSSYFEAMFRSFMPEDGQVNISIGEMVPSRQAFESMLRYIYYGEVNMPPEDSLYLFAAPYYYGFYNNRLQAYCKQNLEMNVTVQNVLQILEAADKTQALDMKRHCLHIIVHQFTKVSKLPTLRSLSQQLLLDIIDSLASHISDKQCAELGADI
B3: Speckle-type POZ protein (Homo sapiens), O43791 (parent)
chain: B1 chain
partner: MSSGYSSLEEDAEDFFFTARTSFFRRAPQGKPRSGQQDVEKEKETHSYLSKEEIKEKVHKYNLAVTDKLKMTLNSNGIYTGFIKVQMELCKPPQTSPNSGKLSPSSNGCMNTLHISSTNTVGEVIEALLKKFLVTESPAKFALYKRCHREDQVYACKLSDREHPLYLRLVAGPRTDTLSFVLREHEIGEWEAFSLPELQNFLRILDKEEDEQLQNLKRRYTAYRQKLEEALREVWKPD
B4: Speckle-type POZ protein (Homo sapiens), O43791 (parent)
chain: B1 chain
partner: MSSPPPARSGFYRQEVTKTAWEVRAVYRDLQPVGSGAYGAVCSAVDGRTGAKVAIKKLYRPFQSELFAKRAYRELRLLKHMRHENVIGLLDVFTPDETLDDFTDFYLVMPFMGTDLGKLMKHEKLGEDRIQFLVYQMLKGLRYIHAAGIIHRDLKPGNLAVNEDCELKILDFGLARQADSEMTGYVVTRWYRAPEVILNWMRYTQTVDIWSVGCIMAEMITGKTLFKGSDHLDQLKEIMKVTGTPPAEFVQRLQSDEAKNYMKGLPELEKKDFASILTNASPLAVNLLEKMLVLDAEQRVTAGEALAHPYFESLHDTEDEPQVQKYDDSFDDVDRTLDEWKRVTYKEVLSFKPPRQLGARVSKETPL

Variants of: B1
Conditions: with lctl_human LCTL

effect of a mutation on the interaction	Variant
with no effect	F133V

Variants of: B1
Conditions: with lctl_human LCTL
Remark: another data set of the same source

effect of a mutation on the interaction	Variant
with no effect	F133L

Variants of: B2
Conditions: with lztr1_human LZTR1, Q8N653

effect of a mutation on the interaction	Variant
with no effect	F102C

Variants of: B2
Conditions: with lztr1_human LZTR1, Q8N653
Remark: another data set of the same source

effect of a mutation on the interaction	Variant
with no effect	F133V

Variants of: B2
Conditions: with lztr1_human LZTR1, Q8N653
Remark: another data set of the same source

effect of a mutation on the interaction	Variant
with no effect	F133L

Variants of: B2
Conditions: with lztr1_human LZTR1, Q8N653
Remark: another data set of the same source

effect of a mutation on the interaction	Variant
with no effect	Y87C

Variants of: B3
Conditions: with rasf3_human RASSF3, Q86WH2

effect of a mutation on the interaction	Variant
with no effect	F133V

Variants of: B3
Conditions: with rasf3_human RASSF3, Q86WH2
Remark: another data set of the same source

effect of a mutation on the interaction	Variant
with no effect	F133L

Variants of: B3
Conditions: with rasf3_human RASSF3, Q86WH2
Remark: another data set of the same source

effect of a mutation on the interaction	Variant
with no effect	F102C

Variants of: B3
Conditions: with rasf3_human RASSF3, Q86WH2
Remark: another data set of the same source

effect of a mutation on the interaction	Variant
with no effect	Y87C

Variants of: B4
Conditions: with mk12_human MAPK12, P53778

effect of a mutation on the interaction	Variant
with no effect	Y87C

Variants of: B4
Conditions: with mk12_human MAPK12, P53778
Remark: another data set of the same source

effect of a mutation on the interaction	Variant
with no effect	F102C
